This note sets out measurements from patent US20240043495A1, “DSG2 COMPOSITIONS AND METHODS FOR THE TREATMENT OF COVID-19” (priority 2020, published 2024).

A value given as a limit tells only on which side of the number the result lay.

Data set [1] can be described thus: Dynamic light scattering (DLS) of DSG2 fusion polypeptides. The data set is classed as physicochemical. The settings on record: for PDI: polymer distribution index. The source says:
6 candidates were compared to the reference sample.

Data set [2] in a line: Melting temperature Tm of DSG2 fusion polypeptides. Format: physicochemical. From the text:
As the temperature increased, the aggregates began to move, unfold and spread apart.

The test system of data set [3] is anti-DSG2 antibody. Kind of data set: Anti-DSG2 antibody Meso Scale Discovery (MSD) blocking assay, anti-DSG2 antibody controls. Format: binding. The settings on record: for ability to bind to and block anti-DSG2 antibody: MSD assay; for % inhibition: fraction C. On the procedure:
(§1) The DSG2 fusion polypeptides were tested for the ability to block anti-DSG2 antibody by an anti-DSG2 antibody Meso Scale Discovery (MSD) assay. […] The DSG2 fusion polypeptides were subjected to size exclusion chromatography and different elution fractions were examined. […] As shown in Table 9 and FIG. 4B, FIG. 4C, and FIG. 4D, enriching for fraction C improved the ability of the DSG2 fusion polypeptides to block ARVC patient serum.

Data set [4] deals with Anti-DSG2 antibody. The experiment in a line: anti-DSG2 antibody MSD assay; fraction C; inhibition of the signal of anti-DSG2 antibody at 200 ng/mL (control).
In data set [5] the target is Anti-DSG2 antibody. The experiment in a line: anti-DSG2 antibody MSD assay; fraction C; inhibition of the signal of anti-DSG2 antibody at 1000 ng/mL (control).
Data set [6] concerns the target Anti-DSG2 antibody. Kind of data set: electrochemical immunoassay; blocking of anti-DSG2 antibodies (500 ng/mL) binding to DSG2 extracellular domain; fusion polypeptide 5 mg/mL as printed.
The test system of data set [7] is ARVC serum (serum obtained from ARVC patients). Kind of data set: Anti-DSG2 antibody Meso Scale Discovery (MSD) blocking assay, ARVC serum. Format: binding, human. The settings on record: for % inhibition: fraction C; for effect of enriching for fraction C on ability to block ARVC patient serum: size exclusion fraction C vs whole preparation, FIG. 4B-4D. As to the method:
as §1

[8] abbreviates: sample: Anti-DSG2 antibody (200 ng/mL) control.
Setting [9] is: sample: Anti-DSG2 antibody (1000 ng/mL) control.

Turning to “DSG2FP#6: DSG2 extracellular domain (50-609 of SEQ ID NO: 1); amino acids 99-327 of IgG4 (S228P, L235E, P329G) (SEQ ID NO: 32)”, in data set [1], the “Peak 1 mass %” value was roughly 99%, the “Peak 1 mode diameter” value is on record as 98.03 nm and the PDI amounted to 0.32. For the same molecule, in data set [2], the Tm1 was found to be 51.1 °C and the Tm2 came out at 60.0 °C. Also, the “ability to bind to and block anti-DSG2 antibody” value (shortened to “ability to bind”) in data set [3] was “able to bind to and block anti-DSG2 antibodies”.

Turning to “DSG2FP#7: DSG2 extracellular domain (50-609 of SEQ ID NO: 1); GGGGS peptide linker; IgG4 Fc (S228P, L235E, P329G) (SEQ ID NO: 32)”, in data set [1], the “Peak 1 mass %” value is recorded as roughly 97%, the “Peak 1 mode diameter” value was found to be 86.23 nm and the PDI was found to be 0.30. Moreover, in data set [2], the Tm1 stood at 53.4 °C and the Tm2 was determined as 60.0 °C. For the same molecule, in data set [3], the “ability to bind” value was “able to bind to and block anti-DSG2 antibodies”.

As for DSG2-(IgG1)Fc (Fc fusion), the % inhibition in data set [4] stood at 54.5%; in data set [5], 81.6%.

For DSG2-EAAAK-(IgG1)Fc (Fc fusion), the % inhibition in data set [4] was found to be 61.2%; in data set [5] it was 85.5%.

For DSG2-GGGGS-(IgG1)Fc (Fc fusion), the results for the % inhibition in data set [4] and in data set [5] were 61.2% and 85.5%, respectively.

As to DSG2-GGGGS-(IgG4)Fc (Fc fusion), the % inhibition in data set [6] is greater than 80%.

For “DSG2FP#5: amino acids 104-330 of IgG1 (L234A, L235A, P329G; SEQ ID NO: 31); DSG2 extracellular domain (50-609 of SEQ ID NO: 1)”, in data set [1], the “Peak 1 mass %” value is given as roughly 99%, the “Peak 1 mode diameter” value is recorded as 76.72 nm and the PDI stood at 0.31. Moreover, the Tm1 in data set [2] amounted to 65.0 °C. For the same molecule, in data set [3], the “ability to bind” value is “able to bind to and block anti-DSG2 antibodies”.

Consider DSG2-(IgG4)Fc (Fc fusion), for which the % inhibition in data set [6] is greater than 80%.

B1: DSG2FP#3: DSG2 extracellular domain (50-609 of SEQ ID NO: 1); linker GGGGS; amino acids 104-330 of IgG1 (L234A, L235A, P329G) (protein)
chain: AWITAPVALREGEDLSKKNPIAKIHSDLAEERGLKITYKYTGKGITEPPFGIFVFNKDTGELNVTSILDREETPFFLLTGYALDARGNNVEKPLELRIKVLDINDNEPVFTQDVFVGSVEELSAAHTLVMKINATDADEPNTLNSKISYRIVSLEPAYPPVFYLNKDTGEIYTTSVTLDREEHSSYTLTVEARDGNGEVTDKPVKQAQVQIRILDVNDNIPVVENKVLEGMVEENQVNVEVTRIKVFDADEIGSDNWLANFTFASGNEGGYFHIETDAQTNEGIVTLIKEVDYEEMKNLDFSVIVANKAAFHKSIRSKYKPTPIPIKVKVKNVKEGIHFKSSVISIYVSESMDRSSKGQIIGNFQAFDEDTGLPAHARYVKLEDRDNWISVDSVTSEIKLAKLPDFESRYVQNGTYTVKIVAISEDYPRKTITGTVLINVEDINDNCPTLIEPVQTICHDAEYVNVTAEDLDGHPNSGPFSFSVIDKPPGMAEKWKIARQESTSVLLQQSEKKLGRSEIQFLISDNQGFSCPEKQVLTLTVCECLHGSGCREAQHDSYVGGGGGGSDKTHTCPPCPAPEAAGGPSVFLFPPKPKDTLMISRTPEVTCVVVDVSHEDPEVKFNWYVDGVEVHNAKTKPREEQYNSTYRVVSVLTVLHQDWLNGKEYKCKVSNKALGAPIEKTISKAKGQPREPQVYTLPPSRDELTKNQVSLTCLVKGFYPSDIAVEWESNGQPENNYKTTPPVLDSDGSFFLYSKLTVDKSRWQQGNVFSCSVMHEALHNHYTQKSLSLSPGK
As for B1, the “Peak 1 mass %” value in data set [1] was roughly 91%. Besides, the “Peak 1 mode diameter” value in data set [1] stood at 43.23 nm. The PDI in data set [1] came out at 0.30. The Tm1 in data set [2] amounted to 51.3 °C. Also, in data set [2], the Tm2 amounted to 62.8 °C. For the same molecule, the Tm3 in data set [2] came to 82.1 °C. Further, the “ability to bind” value in data set [3] was “able to bind to and block anti-DSG2 antibodies”. Besides, the “% inhibition” value in data set [3] (setting [8]) is listed as 61.2%; in data set [3] (setting [9]) it was 85.5%; in data set [3] (sample: no antibody control) it was 0.7%; in data set [7] (sample: ARVC serum 1), 9.2%; in data set [7] (sample: ARVC serum 2) it was 27.6%; in data set [7] (sample: ARVC serum 3), 15.5%. The figures for the “% inhibition” value in data set [7] (sample: ARVC serum 4) and in data set [7] (sample: ARVC serum 5) were −5.6% and 20.6%, respectively. Also, the “effect of enriching for fraction C on ability to block ARVC patient serum” value in data set [7] is recorded as “more pronounced”.

B2: DSG2FP#4: DSG2 extracellular domain (50-609 of SEQ ID NO: 1); linker EAAAK; amino acids 104-330 of IgG1 (L234A, L235A, P329G) (protein)
chain: AWITAPVALREGEDLSKKNPIAKIHSDLAEERGLKITYKYTGKGITEPPFGIFVFNKDTGELNVTSILDREETPFFLLTGYALDARGNNVEKPLELRIKVLDINDNEPVFTQDVFVGSVEELSAAHTLVMKINATDADEPNTLNSKISYRIVSLEPAYPPVFYLNKDTGEIYTTSVTLDREEHSSYTLTVEARDGNGEVTDKPVKQAQVQIRILDVNDNIPVVENKVLEGMVEENQVNVEVTRIKVFDADEIGSDNWLANFTFASGNEGGYFHIETDAQTNEGIVTLIKEVDYEEMKNLDFSVIVANKAAFHKSIRSKYKPTPIPIKVKVKNVKEGIHFKSSVISIYVSESMDRSSKGQIIGNFQAFDEDTGLPAHARYVKLEDRDNWISVDSVTSEIKLAKLPDFESRYVQNGTYTVKIVAISEDYPRKTITGTVLINVEDINDNCPTLIEPVQTICHDAEYVNVTAEDLDGHPNSGPFSFSVIDKPPGMAEKWKIARQESTSVLLQQSEKKLGRSEIQFLISDNQGFSCPEKQVLTLTVCECLHGSGCREAQHDSYVGEAAAKDKTHTCPPCPAPEAAGGPSVFLFPPKPKDTLMISRTPEVTCVVVDVSHEDPEVKFNWYVDGVEVHNAKTKPREEQYNSTYRVVSVLTVLHQDWLNGKEYKCKVSNKALGAPIEKTISKAKGQPREPQVYTLPPSRDELTKNQVSLTCLVKGFYPSDIAVEWESNGQPENNYKTTPPVLDSDGSFFLYSKLTVDKSRWQQGNVFSCSVMHEALHNHYTQKSLSLSPGK
Take B2: the “Peak 1 mass %” value in data set [1] is roughly 96%. Moreover, in data set [1], the “Peak 1 mode diameter” value was found to be 44.87 nm. In data set [1], the PDI stood at 0.32. In addition, in data set [2], the Tm1 amounted to 50.7 °C. Also, in data set [2], the Tm2 was 63.1 °C. Besides, the Tm3 in data set [2] was 81.5 °C. Further, the “ability to bind” value in data set [3] was “able to bind to and block anti-DSG2 antibodies”. In addition, the “% inhibition” value in data set [3] (setting [8]) is on record as 61.2%; in data set [3] (setting [9]), 85.5%; in data set [3] (sample: no antibody control) it was 0.7%; in data set [7] (sample: ARVC serum 1) it was 6.0%; in data set [7] (sample: ARVC serum 2), 9.2%; in data set [7] (sample: ARVC serum 3), −8.0%. The entries for the “% inhibition” value in data set [7] (sample: ARVC serum 4) and in data set [7] (sample: ARVC serum 5) were 0.8% and 2.0%, respectively.

B3: DSG2FP#2: DSG2 extracellular domain (amino acids 50-609 of SEQ ID NO: 1); amino acids 104-330 of IgG1 (L234A, L235A, P329G) (SEQ ID NO: 31) (protein)
chain: AWITAPVALREGEDLSKKNPIAKIHSDLAEERGLKITYKYTGKGITEPPFGIFVFNKDTGELNVTSILDREETPFFLLTGYALDARGNNVEKPLELRIKVLDINDNEPVFTQDVFVGSVEELSAAHTLVMKINATDADEPNTLNSKISYRIVSLEPAYPPVFYLNKDTGEIYTTSVTLDREEHSSYTLTVEARDGNGEVTDKPVKQAQVQIRILDVNDNIPVVENKVLEGMVEENQVNVEVTRIKVFDADEIGSDNWLANFTFASGNEGGYFHIETDAQTNEGIVTLIKEVDYEEMKNLDFSVIVANKAAFHKSIRSKYKPTPIPIKVKVKNVKEGIHFKSSVISIYVSESMDRSSKGQIIGNFQAFDEDTGLPAHARYVKLEDRDNWISVDSVTSEIKLAKLPDFESRYVQNGTYTVKIVAISEDYPRKTITGTVLINVEDINDNCPTLIEPVQTICHDAEYVNVTAEDLDGHPNSGPFSFSVIDKPPGMAEKWKIARQESTSVLLQQSEKKLGRSEIQFLISDNQGFSCPEKQVLTLTVCECLHGSGCREAQHDSYVGDKTHTCPPCPAPEAAGGPSVFLFPPKPKDTLMISRTPEVTCVVVDVSHEDPEVKFNWYVDGVEVHNAKTKPREEQYNSTYRVVSVLTVLHQDWLNGKEYKCKVSNKALGAPIEKTISKAKGQPREPQVYTLPPSRDELTKNQVSLTCLVKGFYPSDIAVEWESNGQPENNYKTTPPVLDSDGSFFLYSKLTVDKSRWQQGNVFSCSVMHEALHNHYTQKSLSLSPGK
Consider B3, for which the “Peak 1 mass %” value in data set [1] was roughly 96%. Further, the “Peak 1 mode diameter” value in data set [1] is on record as 40.04 nm. The molecule further showed a PDI in data set [1] of 0.32. Further, the Tm1 in data set [2] is 52.0 °C. Moreover, in data set [2], the Tm2 turned out to be 61.9 °C. Besides, the Tm3 in data set [2] was 81.9 °C. Moreover, the “ability to bind” value in data set [3] was “able to bind to and block anti-DSG2 antibodies”. For the same molecule, the “% inhibition” value is reported as 54.5% in data set [3] (setting [8]); 81.6% in data set [3] (setting [9]); −19.1% in data set [3] (sample: no antibody control); 3.0% in data set [7] (sample: ARVC serum 1); 33.5% in data set [7] (sample: ARVC serum 2); 26.0% in data set [7] (sample: ARVC serum 3). The “% inhibition” value amounted to 51.1% in data set [7] (sample: ARVC serum 4) and 41.8% in data set [7] (sample: ARVC serum 5). The “effect of enriching for fraction C on ability to block ARVC patient serum” value in data set [7] is on record as “more pronounced”.
